How the values were obtained:
human serum protein [1] = assay: summary of Example 1-9: adsorption to human serum protein-immobilized magnetic beads
human serum protein [2] = assay: adsorption to human serum protein-immobilized magnetic beads, western blot quantification
human serum protein [3] = assay: adsorption of TM2 variant to human serum protein-immobilized magnetic beads, western blot quantification
human serum protein [4] = assay: human serum (1:800) adsorbed to TM2-immobilized magnetic beads, HRP-labeled anti-human IgG detection
human serum protein [5] = assay: adsorption of TM2 to human serum protein-immobilized magnetic beads, western blot quantification (reference)
human serum protein [6] = assay: human serum (1:800) adsorbed to TM2 variant-immobilized magnetic beads, HRP-labeled anti-human IgG detection

Binder	non-specific binding and adsorption relative to wild type TM2 (% of wild type TM2) (human serum protein [1])	decrease of adsorption to human serum protein compared to the wild type TM2 (human serum protein [2])	Non-specific binding of serum protein (%) (% of wild type TM2) (human serum protein [3])	Non-specific binding to serum protein (A450) (human serum protein [4])	Non-specific binding of serum protein (%) (% of wild type TM2) (human serum protein [5])	Non-specific binding to serum protein (A450) (human serum protein [6])
TM2 K26A (protein) MSDVQSSLTGTWYNELNSKMELTANADGTLTGKYLSKVGDVYVPYPLSGRYNLQPPAGQGVALGWAVSWENSKIHSATTWSGQFFSESSPVILTQWLLSSSTARGDVWESTLVGNDSFTKTAPTEQQIAHAQLHCRAPRLK	60	30%	68			
tamavidin 2 (wild type) (protein) MSDVQSSLTGTWYNELNSKMELTANKDGTLTGKYLSKVGDVYVPYPLSGRYNLQPPAGQGVALGWAVSWENSKIHSATTWSGQFFSESSPVILTQWLLSSSTARGDVWESTLVGNDSFTKTAPTEQQIAHAQLHCRAPRLK				0.67 A450	100	
TM2 R104E (protein) MSDVQSSLTGTWYNELNSKMELTANKDGTLTGKYLSKVGDVYVPYPLSGRYNLQPPAGQGVALGWAVSWENSKIHSATTWSGQFFSESSPVILTQWLLSSSTAEGDVWESTLVGNDSFTKTAPTEQQIAHAQLHCRAPRLK		10%	90			
TM2 K73Q (protein) MSDVQSSLTGTWYNELNSKMELTANKDGTLTGKYLSKVGDVYVPYPLSGRYNLQPPAGQGVALGWAVSWENSQIHSATTWSGQFFSESSPVILTQWLLSSSTARGDVWESTLVGNDSFTKTAPTEQQIAHAQLHCRAPRLK	60	40%	55			
TM2 K141E (protein) MSDVQSSLTGTWYNELNSKMELTANKDGTLTGKYLSKVGDVYVPYPLSGRYNLQPPAGQGVALGWAVSWENSKIHSATTWSGQFFSESSPVILTQWLLSSSTARGDVWESTLVGNDSFTKTAPTEQQIAHAQLHCRAPRLE	60	40%	58			
TM2 R104EK141E (protein) MSDVQSSLTGTWYNELNSKMELTANKDGTLTGKYLSKVGDVYVPYPLSGRYNLQPPAGQGVALGWAVSWENSKIHSATTWSGQFFSESSPVILTQWLLSSSTAEGDVWESTLVGNDSFTKTAPTEQQIAHAQLHCRAPRLE	20	70%	25			
TM2 D40NR104EK141E (protein) MSDVQSSLTGTWYNELNSKMELTANKDGTLTGKYLSKVGNVYVPYPLSGRYNLQPPAGQGVALGWAVSWENSKIHSATTWSGQFFSESSPVILTQWLLSSSTAEGDVWESTLVGNDSFTKTAPTEQQIAHAQLHCRAPRLE						0.45 A450
